According to IntAct's records for PubMed 15105431:

B1: T-cell surface antigen CD2 (Homo sapiens), P06729 (parent)
chain: MSFPCKFVASFLLIFNVSSKGAVSKEITNALETWGALGQDINLDIPSFQMSDDIDDIKWEKTSDKKKIAQFRKEKETFKEKDTYKLFKNGTLKIKHLKTDDQDIYKVSIYDTKGKNVLEKIFDLKIQERVSKPKISWTCINTTLTCEVMNGTDPELNLYQDGKHLKLSQRVITHKWTTSLSAKFKCTAGNKVSKESSVEPVSCPEKGLDIYLIIGICGGGSLLMVFVALLVFYITKRKKQRSRRNDEELETRAHRVATEERGRKPHQIPASTPQNPATSQHPPPPPGHRSQAPSHRPPPPGHRVQHQPQKRPPAPSGTQVHQQKGPPLPRPRVQPKPPHGAAENSLSPSSN
partner: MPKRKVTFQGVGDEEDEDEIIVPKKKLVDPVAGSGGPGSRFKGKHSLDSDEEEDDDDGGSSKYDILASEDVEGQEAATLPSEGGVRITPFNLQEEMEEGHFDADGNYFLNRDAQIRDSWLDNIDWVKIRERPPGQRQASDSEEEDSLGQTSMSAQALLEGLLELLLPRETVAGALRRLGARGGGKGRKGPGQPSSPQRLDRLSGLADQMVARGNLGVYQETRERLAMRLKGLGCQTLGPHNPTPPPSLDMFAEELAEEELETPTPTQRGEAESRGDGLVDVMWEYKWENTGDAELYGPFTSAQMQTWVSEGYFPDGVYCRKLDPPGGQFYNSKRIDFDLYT

Variants of: B1
Settings: with cd2b2_human CD2BP2, O95400

Effect of a mutation on the interaction: each site, then its substitutions
P299: C decreasing interaction strength | D disrupting interaction strength | E disrupting interaction strength | F decreasing interaction strength | H decreasing interaction strength | I decreasing interaction strength | K decreasing interaction strength | L disrupting interaction strength | N decreasing interaction strength | Q disrupting interaction strength | R disrupting interaction strength | T disrupting interaction strength | V disrupting interaction strength | Y disrupting interaction strength
P300: A disrupting interaction strength | C decreasing interaction strength | D disrupting interaction strength | E disrupting interaction strength | F decreasing interaction strength | H decreasing interaction strength | I decreasing interaction strength | K decreasing interaction strength | L decreasing interaction strength | M decreasing interaction strength | N decreasing interaction strength | Q decreasing interaction strength | R decreasing interaction strength | S disrupting interaction strength | T disrupting interaction strength | V disrupting interaction strength | W decreasing interaction strength | Y decreasing interaction strength
G301: A disrupting interaction strength | F decreasing interaction strength | H decreasing interaction strength | I decreasing interaction strength | K decreasing interaction strength | M disrupting interaction strength | N decreasing interaction strength | P decreasing interaction strength | Q decreasing interaction strength | S decreasing interaction strength | T disrupting interaction strength | V disrupting interaction strength | Y decreasing interaction strength
H302: D decreasing interaction strength | E decreasing interaction strength
R303: A disrupting interaction strength | C disrupting interaction strength | D disrupting interaction strength | E disrupting interaction strength | F decreasing interaction strength | G disrupting interaction strength | H decreasing interaction strength | I decreasing interaction strength | L decreasing interaction strength | M decreasing interaction strength | N decreasing interaction strength | P decreasing interaction strength | Q decreasing interaction strength | S disrupting interaction strength | T disrupting interaction strength
